Results on six variants are retold here after IntAct's records for PubMed 19513107.

Sequences and labels used below:
B1: STE20-related kinase adapter protein alpha (Homo sapiens), Q7RTN6-1 (parent)
chain: MSFLVSKPERIRRWVSEKFIVEGLRDLELFGEQPPGDTRRKTNDASSESIASFSKQEVMSSFLPEGGCYELLTVIGKGFEDLMTVNLARYKPTGEYVTVRRINLEACSNEMVTFLQGELHVSKLFNHPNIVPYRATFIADNELWVVTSFMAYGSAKDLICTHFMDGMNELAIAYILQGVLKALDYIHHMGYVHRSVKASHILISVDGKVYLSGLRSNLSMISHGQRQRVVHDFPKYSVKVLPWLSPEVLQQNLQGYDAKSDIYSVGITACELANGHVPFKDMPATQMLLEKLNGTVPCLLDTSTIPAEELTMSPSRSVANSGLSDSLTTSTPRPSNGDSPSHPYHRTFSPHFHHFVEQCLQRNPDARPSASTLLNHSFFKQIKRRASEALPELLRPVTPITNFEGSQSQDHSGIFGLVTNLEELEVDDWEF
partner: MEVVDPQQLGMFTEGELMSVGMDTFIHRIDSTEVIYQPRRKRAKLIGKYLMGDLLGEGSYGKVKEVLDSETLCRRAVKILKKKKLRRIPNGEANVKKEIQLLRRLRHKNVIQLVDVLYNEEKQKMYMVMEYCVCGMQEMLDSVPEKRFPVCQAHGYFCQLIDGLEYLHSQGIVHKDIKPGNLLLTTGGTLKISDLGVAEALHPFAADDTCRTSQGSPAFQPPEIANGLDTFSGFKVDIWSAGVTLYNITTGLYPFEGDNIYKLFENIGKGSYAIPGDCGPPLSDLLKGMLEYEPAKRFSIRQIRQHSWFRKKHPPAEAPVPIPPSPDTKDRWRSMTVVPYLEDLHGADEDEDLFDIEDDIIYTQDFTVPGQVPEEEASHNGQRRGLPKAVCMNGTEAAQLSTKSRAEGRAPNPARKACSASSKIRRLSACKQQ
B2: STE20-related kinase adapter protein alpha (Homo sapiens), Q7RTN6-1 (parent)
chain: B1 chain
partner: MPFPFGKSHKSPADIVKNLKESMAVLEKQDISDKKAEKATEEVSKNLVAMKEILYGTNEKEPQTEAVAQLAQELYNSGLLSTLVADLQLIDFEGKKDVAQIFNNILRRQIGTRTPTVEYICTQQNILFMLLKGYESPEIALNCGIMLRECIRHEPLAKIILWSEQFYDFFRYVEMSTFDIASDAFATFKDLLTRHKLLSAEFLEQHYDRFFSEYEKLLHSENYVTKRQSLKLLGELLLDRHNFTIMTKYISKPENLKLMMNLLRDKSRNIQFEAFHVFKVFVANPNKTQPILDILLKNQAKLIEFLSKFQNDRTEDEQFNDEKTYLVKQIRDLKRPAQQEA

One assay covers variants of B1. The following applies: with stk11_human STK11, Q15831.
As for MSFLVSKPERIRRWVSEKFIVEGLRDLELFGEQPPGDTRRKTNDASSESIASFSKQEVMSSFLPEGGCYELLTVIDKDFEDLMTVNLARYKPTGEYVTVRRINLEACSNEMVTFLQGELHVSKLFNHPNIVPYRATFIADNELWVVTSFMAYGSAKDLICTHFMDGMNELAIAYILQGVLKALDYIHHMGYVHRSVKASHILISVDGKVYLSGLESNLSMISHGQRQRVVHDFPKYSVKVLPWLSPEVLQQNLQGYDAKSDIYSVGITACELANGHVPFKDMPATQMLLEKLNGTVPCLLDTSTIPAEELTMSPSRSVANSGLSDSLTTSTPRPSNGDSPSHPYHRTFSPHFHHFVEQCLQRNPDARPSASTLLNHSFFKQIKRRASEALPELLRPVTPITNFEGSQSQDHSGIFGLVTNLEELEVDDWEF [G76D;G78D;R215E], the “effect of a mutation on the interaction” value is “decreasing interaction”.

Variants of B2 are the subject of the next assay. The following applies: with cab39_human CAB39, Q9Y376.
With MSFLVSKPERIRRWVSEKFIVEGLRDLELFGEQPPGDTRRKTNDASSESIASFSKQEVMSSFLPEGGCYELLTVIGKGFEDLMTVNLARYKPTGEYVTVRRINLEACSNEMVTFLQGELHVSKLFNHPNIVPYRATFIADNELWVVTSFMAYGSAKDLICTHFMDGMNELAIAYILQGVLKALDFIHHMGYVHRSVKASHILISVDGKVYLSGLRSNLSMISHGQRQRVVHDFPKYSVKVLPWLSPEVLQQNLQGYDAKSDIYSVGITACELANGHVPFKDMPATQMLLEKLNGTVPCLLDTSTIPAEELTMSPSRSVANSGLSDSLTTSTPRPSNGDSPSHPYHRTFSPHFHHFVEQCLQRNPDARPSASTLLNHSFFKQIKRRASEALPELLRPVTPITNFEGSQSQDHSGIFGLVTNLEELEVDDWEF [Y185F], the “effect of a mutation on the interaction” value is “disrupting interaction”.
Consider MSFLVSKPERIRRWVSEKFIVEGLRDLELFGEQPPGDTRRKTNDASSESIASFSKQEVMSSFLPEGGCYELLTVIGKGFEDLMTVNLARYKPTGEYVTVRRINLEACSNEMVTFLQGELHVSKLFNHPNIVPYRATFQADNELWVVTSFMAYGSAKDLICTHFMDGMNELAIAYILQGVLKALDYIHHMGYVHRSVKASHILISVDGKVYLSGLRSNLSMISHGQRQRVVHDFPKYSVKVLPWLSPEVLQQNLQGYDAKSDIYSVGITACELANGHVPFKDMPATQMLLEKLNGTVPCLLDTSTIPAEELTMSPSRSVANSGLSDSLTTSTPRPSNGDSPSHPYHRTFSPHFHHFVEQCLQRNPDARPSASTLLNHSFFKQIKRRASEALPELLRPVTPITNFEGSQSQDHSGIFGLVTNLEELEVDDWEF [I138Q], for which the “effect of a mutation on the interaction” value was “disrupting interaction”.
The same measure, in the same setting: the value for MSFLVSKPERIRRWVSEKFIVEGLRDLELFGEQPPGDTRRKTNDASSESIASFSKQEVMSSFLPEGGCYELLTVIGKGFEDLMTVNLARYKPTGEYVTVRRINLEACSAEMVTFLQGELHVSKLFNHPNIVPYRATFIADNELWVVTSFMAYGSAKDLICTHFMDGMNELAIAYILQGVLKALDYIHHMGYVHRSVKASHILISVDGKVYLSGLRSNLSMISHGQRQRVVHDFPKYSVKVLPWLSPEVLQQNLQGYDAKSDIYSVGITACELANGHVPFKDMPATQMLLEKLNGTVPCLLDTSTIPAEELTMSPSRSVANSGLSDSLTTSTPRPSNGDSPSHPYHRTFSPHFHHFVEQCLQRNPDARPSASTLLNHSFFKQIKRRASEALPELLRPVTPITNFEGSQSQDHSGIFGLVTNLEELEVDDWEF [N109A] was “decreasing interaction”; that for MSFLVSKPERIRRWVSEKFIVEGLRDLELFGEQPPGDTRRKTNDASSESIASFSKQEVMSSFLPEGGCYELLTVIGKGFEDLMTVNLARYKPTGEYVTVRRINLAACSNEMVTFLQGELHVSKLFNHPNIVPYRATFIADNELWVVTSFMAYGSAKDLICTHFMDGMNELAIAYILQGVLKALDYIHHMGYVHRSVKASHILISVDGKVYLSGLRSNLSMISHGQRQRVVHDFPKYSVKVLPWLSPEVLQQNLQGYDAKSDIYSVGITACELANGHVPFKDMPATQMLLEKLNGTVPCLLDTSTIPAEELTMSPSRSVANSGLSDSLTTSTPRPSNGDSPSHPYHRTFSPHFHHFVEQCLQRNPDARPSASTLLNHSFFKQIKRRASEALPELLRPVTPITNFEGSQSQDHSGIFGLVTNLEELEVDDWEF [E105A] was “disrupting interaction”.
Same read-out and setting: the value for MSFLVSKPERIRRWVSEKFIVEGLRDLELFGEQPPGDTRRKTNDASSESIASFSKQEVMSSFLPEGGCYELLTVIGKGFEDLMTVNLARYKPTGEYVTVRRINLEACSNEMVTFLQGELHVSKLFGHPNIVPYRATFIADNELWVVTSFMAYGSAKDLICTHFMDGMNELAIAYILQGVLKALDYIHHMGYVHRSVKASHILISVDGKVYLSGLRSNLSMISHGQRQRVVHDFPKYSVKVLPWLSPEVLQQNLQGYDAKSDIYSVGITACELANGHVPFKDMPATQMLLEKLNGTVPCLLDTSTIPAEELTMSPSRSVANSGLSDSLTTSTPRPSNGDSPSHPYHRTFSPHFHHFVEQCLQRNPDARPSASTLLNHSFFKQIKRRASEALPELLRPVTPITNFEGSQSQDHSGIFGLVTNLEELEVDDWEF [N126G] was “decreasing interaction”.
